Experimental data: patent publication US12723255B2, “Herbicide tolerance genes and methods of use thereof” (priority 2014, dated 2026)

Test system: F1 hybrid maize plants
Assay: trait efficacy field trial, quizalofop-P pressure screening, F1 hybrid
Format: in vivo
Conditions: crop injury percentage; for 4X Qizalofop-P CIPV4 / 4X Qizalofop-P CIPV8: 0.32 lb ai/acre at VE-V2, V4, V8; for 8X Qizalofop-P CIPV4 / 8X Qizalofop-P CIPV8: 0.64 lb ai/acre at VE-V2, V4, V8; for 16X Qizalofop-P CIPV4 / 16X Qizalofop-P CIPV8: 1.28 lb ai/acre at VE-V2, V4, V8
Procedure: Separate trait efficacy field trials for quizalofop-P and 2,4-D pressure screening were conducted at one location each with F1 hybrid transgenic plants produced by crossing an inbred plant containing maize event MON89034 with an R1 plant containing MON-HT1, MON-HT2, MON-HT8, MON-HT9, and MON-HT10 with and without operably linked CTP sequences. Transgenic F1 hybrid plants containing maize events NK603×MON89034 were used for comparison as a control.
In the trait efficacy field trial for quizalofop-P tolerance, one of three herbicide treatments was used: (1) quizalofop-P (Assure II) at 0.32 lb ai/acre (4×) plus 0.25% v/v non-ionic surfactant (NIS) applied at VE-V2 growth stage followed by the same at V4 growth stage followed by the same at V8 growth stage; (2) quizalofop-P at 0.64 lb ai/acre (8×) plus 0.25% v/v NIS applied at VE-V2 growth stage followed by the same at V4 growth stage followed by the same at V8 growth stage; or (3) quizalofop-P at 1.28 lb ai/acre (16×) plus 0.25% v/v NIS applied at VE-V2 growth stage followed by the same at V4 growth stage followed by the same at V8 growth stage. Plots were visually rated as above. […] The injury rating for the control plants after all quizalofop-P application was 100%. Error was calculated using LSD (0.05).

| Molecule | 4X Qizalofop-P CIPV4 (CTP A) | 4X Qizalofop-P CIPV8 (CTP A) | 8X Qizalofop-P CIPV4 (CTP A) | 8X Qizalofop-P CIPV8 (CTP A) | 16X Qizalofop-P CIPV4 (CTP A) | 16X Qizalofop-P CIPV8 (CTP A) | 4X Qizalofop-P CIPV4 (CTP B) | 4X Qizalofop-P CIPV8 (CTP B) | 8X Qizalofop-P CIPV4 (CTP B) | 8X Qizalofop-P CIPV8 (CTP B) | 16X Qizalofop-P CIPV4 (CTP B) | 16X Qizalofop-P CIPV8 (CTP B) | 4X Qizalofop-P CIPV4 (CTP C) | 4X Qizalofop-P CIPV8 (CTP C) | 8X Qizalofop-P CIPV4 (CTP C) | 8X Qizalofop-P CIPV8 (CTP C) | 16X Qizalofop-P CIPV4 (CTP C) | 16X Qizalofop-P CIPV8 (CTP C) | 4X Qizalofop-P CIPV4 (no CTP) | 4X Qizalofop-P CIPV8 (no CTP) | also measured |
| --- | --- | --- | --- | --- | --- | --- | --- | --- | --- | --- | --- | --- | --- | --- | --- | --- | --- | --- | --- | --- | --- |
| MON-HT1: engineered oxygenase protein, amino acid sequence SEQ ID NO:14 (protein) MHAALTPLTNKYRFIDVQPLTGVLGAEITGVDLREPLDDSTWNEILDAFHTYQVIYFPGQAITNEQHIAFSRRFGPVDPVPILKSIEGYPEVQMIRREANESSRFIGDDWHTDSTFLDAPPAAVVMRAIEVPEYGGDTGFLSMYSAWETLSPTMQATIEGLNVVHSATKVFGSLYQATNWRFSNTSVKVMDVDAGDRETVHPLVVTHPVTGRRALYCNQVYCQKIQGMTDAESKSLLQFLYEHATKFDFTCRVRWKKDQVLVWDNLCTMHRAVPDYAGKFRYLTRTTVAGDKPSR | 0 | 7.5 | 2.5 | 10 | 5 | 15 | 2.5 | 5 | 2.5 | 7.5 | 2.5 | 20 | 0 | 5 | 2.5 | 10 | 5 | 20 | 2.5 | 10 | 8X Qizalofop-P CIPV4 (no CTP): 10; 8X Qizalofop-P CIPV8 (no CTP): 22.5; 16X Qizalofop-P CIPV4 (no CTP): 22.5; 16X Qizalofop-P CIPV8 (no CTP): 37.5 |
| MON-HT8: engineered oxygenase protein, amino acid sequence SEQ ID NO:37 (protein) MHAALTPLTNKYRFIDVQPLTGVLGAEITGVDLREPLDDSTWNEILDAFHTYQVIYFPGQAITNEQHIAFSRRFGPVDPVPILKSIEGYPEVQMIRREANESGRVIGDDWHTDSTFLDAPPAAVVMRAIEVPEYGGDTGFLSMYSAWETLSPTMQATIEGLNVVHSATKVFGSLYQATNWRFSNTSVKVMDVDAGDRETVHPLVVTHPVTGRRALYCNQVYCQKIQGMTDAESKSLLQFLYEHATKFDFTCRVRWKKDQVLVWDNLCTMHRSVPDYGNAFRYLTRTTVAGDKPSR | 15 | 15 | 37.5 | 35 | 60 | 50 | 5 | 7.5 | 32.5 | 35 | 27.5 | 30 | 55 | 45 | 75 | 55 | 85 | 72.5 | – | – | – |
| MON-HT2: engineered oxygenase protein, amino acid sequence SEQ ID NO:18 (protein) MHAALTPLTNKYRFIDVQPLTGVLGAEITGVDLREPLDDSTWNEILDAFHTYQVIYFPGQAITNEQHIAFSRRFGPVDPVPLLKSIEGYPEVQMIRREANESSRVIGDDWHSDSTFLDAPPAAVVMRAIEVPEYGGDTGFLSMYSAWETLSPTMQATIEGLNVVHSATKVFGSLYQATNWRFSNTSVKVMDVDAGDRETVHPLVVTHPVTGRRALYCNQVYCQKIQGMTDAESKSLLQFLYEHATKFDFTCRVRWKKDQVLVWDNLCTMHRAAPDYAGKFRYLTRTTVAGDKPSR | 0 | 5 | 2.5 | 7.5 | 5 | 15 | 0 | 5 | 0 | 10 | 0 | 20 | 0 | 5 | 5 | 12.5 | 12.5 | 20 | 35 | 45 | 8X Qizalofop-P CIPV4 (no CTP): 50; 8X Qizalofop-P CIPV8 (no CTP): 37.5; 16X Qizalofop-P CIPV4 (no CTP): 70; 16X Qizalofop-P CIPV8 (no CTP): 55 |
| MON-HT9: engineered oxygenase protein, amino acid sequence SEQ ID NO:40 (protein) MHAALTPLTNKYRFIDVQPLTGVLGAEITGVDLREPLDDSTWNEILDAFHTYQVIYFPAQQITNEQHISFSRRFGPVDPVPLLKSIEGYPEVQMIRREANESGRILGDDWHTDSTFLDAPPAAVVMRAIEVPEYGGDTGFLSMYSAWDTLSDTMKATIEGLNVVHSATRVFGSLYQAQNWRFSNTSVKVMDVDAGDRETVHPLVVSHPVTGRRALYCNQVYCQRIEGMTDAESKCLLQFLYEHATKFDFTCRVRWKKDQVLVWDNLCTMHRAVPDYAGKFRYLTRTTVAGDRPAR | 0 | 5 | 2.5 | 15 | 7.5 | 20 | – | – | – | – | – | – | – | – | – | – | – | – | – | – | – |
| MON-HT10: engineered oxygenase protein, amino acid sequence SEQ ID NO:43 (protein) MHAALTPLTNKYRFIDVQPLCGVLGAEITGVDLREPLDDSTWNEILDAFHTYQVIYFPGQAITNEQHIAFSRRFGPVDPVPLLKSIEGYPEVQMIRREANESGRILGDDWHTDSTFLDAPPAAVVMRAIEVPEYGGDTGFLSMYSAWDTLSDTMKATIEGLNVVHSATRVFGSLYQAQNWRFSNTSVKVMDVDAGDRETVHPLVVSHPVTGRRALYCNQVYCQRIEGMTDAESKCLLQFLYEHATKFDFTCRVRWKKDQVLVWDNLCTMHLAVPDYDGKFRYLTRTTVAGDKPSR | 0 | 5 | 2.5 | 10 | 5 | 21 | – | – | – | – | – | – | – | – | – | – | – | – | – | – | – |
